Article doi:10.1101/781070 (bioRxiv, 2019)

Target: the molecule itself
Assay: crystal structure

B1: Drosophila melanogaster Noppera-bo (DmNobo), wild type (enzyme)
chain: MSQPKPILYYDERSPPVRSCLMLIKLLDIDVELRFVNLFKGEQFQKDFLALNPQHSVPTLVHGDLVLTDSHAILIHLAEKFDEGGSLWPQEHAERMKVLNLLLFECSFLFRRDSDFMSATVRQGFANVDVAHHERKLTEAYIIMERYLENSDFMAGPQLTLADLSIVTTLSTVNLMFPLSQFPRLRRWFTAMQQLDAYEANCSGLEKLRQTMESVGSFQFPSSSAVVTEKVE
stoichiometry N: 2
